According to the supplement of paper PMC7877785:
± gives the uncertainty stated by the source.

Assay: self-splicing fitness, log relative to wild type (ln ratio); higher = more splicing; Tetrahymena group I intron in knt gene, E. coli kanamycin selection, DiMSum; sequences stand for … in CUCUCU…GGAGGGAAAAGUUAUCAGGCAUGCACCUGGUAGCUAGUCUUUAAACCAAUAGAUUGCAUCGGUUUAAAAGGCAAGACCGUCAAAUUGCGGGAAAGGGGUCAACAGCCGUUCAGUACCAAGUCUCAGGGGAAACUUUGAGAUGGCCUUGCAAAGGGUAUGGUAAUAAGCUGACGGACAUGGUCCUAACCACGCAGCCAAGUCCUAAGUCAACAGAUCUUCUGUUGAUAUGGAUGCAGUUCACAGACUAAAUGUCGGUCGGGGAAGAUGUAUUCUUCUCAUAAGAUAUAGUCGGACCUCUCCUUAAUGGGAGCUAGCGGAUGAAGUGAUGCAACACUGGAGCCGCUGGGAACUAAUUUGUAUGCGAAAGUAUAUUGAUUAGUUUUGGAGUACUCGUGGUCG
How it was run: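 DiMSum derived fitness as the error-weighted combination of fold changes across replicates, kanamycin versus no kanamycin, normalised to wild type. E. coli BL21(DE3) held the library, which randomised all eight P1ex-region intron nucleotides within the knt kanamycin-resistance gene on pET-22b(+). Six replicate transformations grew overnight at 37°C or 30°C on LB agar with or without 25 μg/mL kanamycin, also containing 100 μg/mL carbenicillin, 50 μM IPTG and 0.2% rhamnose, and pooled colonies were amplicon-sequenced on an Illumina HiSeq 2500.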

Sequence	self-splicing fitness (ln) (30 °C)	self-splicing fitness (ln) (37 °C)
AGUGAGCAAUAUUACGUCGU	-3.79 ± 0.2	-2.07 ± 0.14
AGUGAGCAAUAUUACGUUGC	-3.28 ± 0.2	-2.18 ± 0.24
AGUUAGCAAUAUUACGAAAC	–	-0.856 ± 0.39
AGUUAGCAAUAUUACGACAA	-0.124 ± 0.18	-0.562 ± 0.18
AGUUAGCAAUAUUACGACAC	-0.65 ± 0.12	0.204 ± 0.2
AGUUAGCAAUAUUACGAGAG	-3.75 ± 0.29	-2.24 ± 0.22
AGUUAGCAAUAUUACGAGGC	-3.83 ± 0.27	-3.27 ± 0.23
AGUUAGCAAUAUUACGCCAU	-3.41 ± 0.21	-1.53 ± 0.14
AGUUAGCAAUAUUACGCCCA	-1.44 ± 0.32	-0.867 ± 0.33
AGUUAGCAAUAUUACGCGCU	-3.13 ± 0.21	-2.4 ± 0.31
AGUUAGCAAUAUUACGGAGG	-2.91 ± 0.3	-2.13 ± 0.41
AGUUAGCAAUAUUACGGGAC	-3.33 ± 0.26	-0.241 ± 0.12
AGUUAGCAAUAUUACGGUGU	-3.11 ± 0.21	-1.73 ± 0.21
AGUUAGCAAUAUUACGGUUC	-3.52 ± 0.28	-2.11 ± 0.27
AGUUAGCAAUAUUACGUACG	-0.205 ± 0.18	0.0821 ± 0.19
AGUUAGCAAUAUUACGUAGC	-3.86 ± 0.26	-0.803 ± 0.14
AGUUAGCAAUAUUACGUGCG	-0.586 ± 0.082	-0.00484 ± 0.093
AGUUAGCAAUAUUACGUGGG	-4 ± 0.29	-3.07 ± 0.31
AGUUAGCAAUAUUACGUGUA	-2.26 ± 0.23	-0.97 ± 0.15
AGUUAGCAAUAUUACGUUAU	-3.25 ± 0.17	-2.08 ± 0.17
AUAAAGCAAUAUUACGAACG	-0.309 ± 0.082	-0.0989 ± 0.11
AUAAAGCAAUAUUACGAAGA	-2.47 ± 0.15	-1.17 ± 0.18
AUAAAGCAAUAUUACGAAGG	-2.1 ± 0.081	-1.41 ± 0.12
AUAAAGCAAUAUUACGACGG	-1.66 ± 0.096	-0.375 ± 0.12

Sequence	self-splicing fitness (ln) (30 °C)	self-splicing fitness (ln) (37 °C)
AUAAAGCAAUAUUACGAGCC	-0.929 ± 0.14	-1.35 ± 0.19
AUAAAGCAAUAUUACGAUCC	-1.21 ± 0.2	-0.716 ± 0.22
AUAAAGCAAUAUUACGAUGU	-0.252 ± 0.072	0.28 ± 0.099
AUAAAGCAAUAUUACGCAAC	-1.38 ± 0.13	-1.34 ± 0.21
AUAAAGCAAUAUUACGCACA	0.246 ± 0.1	0.202 ± 0.15
AUAAAGCAAUAUUACGCACU	0.366 ± 0.11	0.662 ± 0.11
AUAAAGCAAUAUUACGCGAA	-1.19 ± 0.088	-0.188 ± 0.1
AUAAAGCAAUAUUACGCGGC	-2.79 ± 0.21	-0.109 ± 0.19
AUAAAGCAAUAUUACGCUGA	-1.27 ± 0.082	-0.907 ± 0.15
AUAAAGCAAUAUUACGGAAA	-1.11 ± 0.11	-1.12 ± 0.18
AUAAAGCAAUAUUACGGACA	-0.148 ± 0.094	0.131 ± 0.13
AUAAAGCAAUAUUACGGACG	-0.505 ± 0.11	-0.793 ± 0.13
AUAAAGCAAUAUUACGGGAG	-1.52 ± 0.11	-1.23 ± 0.14
AUAAAGCAAUAUUACGGGCG	-0.028 ± 0.097	-0.567 ± 0.1
AUAAAGCAAUAUUACGGUGC	-1.95 ± 0.1	-0.743 ± 0.13
AUAAAGCAAUAUUACGUAAA	-2.39 ± 0.11	-1.03 ± 0.12
AUAAAGCAAUAUUACGUACG	-0.889 ± 0.095	-0.0766 ± 0.13
AUAAAGCAAUAUUACGUAGC	-3.74 ± 0.27	-1.26 ± 0.2
AUAAAGCAAUAUUACGUCUA	0.308 ± 0.078	0.497 ± 0.099
AUAAAGCAAUAUUACGUUAG	-1.33 ± 0.067	-0.504 ± 0.088
AUAAAGCAAUAUUACGUUCU	0.0113 ± 0.08	0.404 ± 0.12
AUAAAGCAAUAUUACGUUUC	-3.83 ± 0.23	-2.64 ± 0.33
AUACAGCAAUAUUACGAAGG	-3.3 ± 0.24	-2.87 ± 0.28
AUACAGCAAUAUUACGACCG	-1.22 ± 0.096	-0.49 ± 0.1

Sequence	self-splicing fitness (ln) (30 °C)	self-splicing fitness (ln) (37 °C)
AUACAGCAAUAUUACGACUC	-0.976 ± 0.086	0.311 ± 0.11
AUACAGCAAUAUUACGAGCA	-2.04 ± 0.24	-1.91 ± 0.23
AUACAGCAAUAUUACGAUGU	-0.929 ± 0.076	-0.0117 ± 0.089
AUACAGCAAUAUUACGCAUA	-1.54 ± 0.12	-0.743 ± 0.13
AUACAGCAAUAUUACGCCAC	-3.08 ± 0.24	-3.12 ± 0.32
AUACAGCAAUAUUACGCCUU	-0.541 ± 0.06	-0.208 ± 0.073
AUACAGCAAUAUUACGCUUU	-3.04 ± 0.18	-1.64 ± 0.15
AUACAGCAAUAUUACGGAAC	-3.46 ± 0.43	-1.67 ± 0.35
AUACAGCAAUAUUACGGACG	-1.61 ± 0.091	-1.04 ± 0.098
AUACAGCAAUAUUACGGAGC	-3.27 ± 0.28	-2.78 ± 0.26
AUACAGCAAUAUUACGGCCU	-0.505 ± 0.093	0.263 ± 0.1
AUACAGCAAUAUUACGGCUG	-1.95 ± 0.13	-2.6 ± 0.23
AUACAGCAAUAUUACGGUAC	-4.13 ± 0.3	-2.2 ± 0.18
AUACAGCAAUAUUACGGUAG	-1.54 ± 0.075	-0.891 ± 0.087
AUACAGCAAUAUUACGGUAU	-3.46 ± 0.18	-2.99 ± 0.2
AUACAGCAAUAUUACGGUUG	-2.35 ± 0.097	-0.364 ± 0.093
AUACAGCAAUAUUACGUCAU	-1.53 ± 0.084	-0.888 ± 0.088
AUACAGCAAUAUUACGUCGG	-2.35 ± 0.13	-2.13 ± 0.17
AUACAGCAAUAUUACGUCUG	-2.93 ± 0.083	-1.4 ± 0.08
AUACAGCAAUAUUACGUGGA	-3.06 ± 0.12	-2.47 ± 0.12
AUACAGCAAUAUUACGUGGG	-3.45 ± 0.15	-1.53 ± 0.12
AUACAGCAAUAUUACGUUAG	-3.13 ± 0.15	-2.12 ± 0.17
AUACAGCAAUAUUACGUUAU	-3.44 ± 0.13	-2.04 ± 0.1
AUAGAGCAAUAUUACGAAAG	-3.24 ± 0.2	-2.05 ± 0.22

Sequence	self-splicing fitness (ln) (30 °C)	self-splicing fitness (ln) (37 °C)
AUAGAGCAAUAUUACGAAGA	-1.28 ± 0.38	–
AUAGAGCAAUAUUACGAAGU	-0.306 ± 0.1	-0.662 ± 0.14
AUAGAGCAAUAUUACGAAUC	-3.82 ± 0.25	-2.63 ± 0.3
AUAGAGCAAUAUUACGAAUG	-3.68 ± 0.19	-1.96 ± 0.17
AUAGAGCAAUAUUACGACAA	-1.04 ± 0.07	-0.291 ± 0.092
AUAGAGCAAUAUUACGAGAA	–	-1.82 ± 0.32
AUAGAGCAAUAUUACGAUGU	-0.266 ± 0.067	0.423 ± 0.095
AUAGAGCAAUAUUACGCGUA	-0.662 ± 0.1	-0.524 ± 0.13
AUAGAGCAAUAUUACGCUAC	-2.79 ± 0.2	-2.36 ± 0.2
AUAGAGCAAUAUUACGCUCG	-0.665 ± 0.41	0.704 ± 0.38
AUAGAGCAAUAUUACGGAAA	-2.73 ± 0.22	-2.19 ± 0.38
AUAGAGCAAUAUUACGGCGA	-0.73 ± 0.059	0.0474 ± 0.076
AUAGAGCAAUAUUACGGGAU	-1.54 ± 0.11	-1.87 ± 0.2
AUAGAGCAAUAUUACGGUAC	-3.74 ± 0.32	-1.55 ± 0.23
AUAGAGCAAUAUUACGUACA	-1.62 ± 0.098	-0.944 ± 0.12
AUAGAGCAAUAUUACGUGUC	-2.81 ± 0.33	-2.17 ± 0.36
AUAGAGCAAUAUUACGUGUU	-3.73 ± 0.19	-2.38 ± 0.18
AUAGAGCAAUAUUACGUUAC	-1.38 ± 0.19	-1.37 ± 0.3
AUAGAGCAAUAUUACGUUUU	-1.43 ± 0.084	-1.3 ± 0.14
AUAUAGCAAUAUUACGACGC	-1.91 ± 0.27	-0.93 ± 0.29
AUAUAGCAAUAUUACGAUAU	-1.87 ± 0.13	-1.33 ± 0.13
AUAUAGCAAUAUUACGAUUG	-2.96 ± 0.18	-3.2 ± 0.4
AUAUAGCAAUAUUACGAUUU	-0.24 ± 0.095	0.694 ± 0.12
AUAUAGCAAUAUUACGCACG	-1.54 ± 0.23	-0.439 ± 0.21
